According to patent US20210130437A1:

Assays:
[1] = molecular target: rB7H6.Fc (recombinant B7-H6 Fc fusion protein, R&D Systems) (human) (UniProt Q68D85); assay: flow cytometry of yeast-displayed parental NKp30 stained with […] rB7H6.Fc
[2] = molecular target: human PD-1 and human TIGIT co-expressed on Jurkat cells (Jurkat/PD-1/TIGIT cells) (human); assay: flow cytometry, Jurkat/PD-1/TIGIT cells
CD112R [3] = molecular target: CD112R (UniProt Q6DKI7); assay: flow cytometry, CD112R-expressing cells, 100 nM
[4] = molecular target: human PD-1 expressed on cells (Jurkat/PD-1 cells) (human) (UniProt Q15116); assay: flow cytometry, Jurkat/PD-1 cells
CD96 [5] = molecular target: T1, CD96 (UniProt P40200); assay: flow cytometry, 100 nM Fc fusion on cells expressing CD96
T1 sequence (looked up): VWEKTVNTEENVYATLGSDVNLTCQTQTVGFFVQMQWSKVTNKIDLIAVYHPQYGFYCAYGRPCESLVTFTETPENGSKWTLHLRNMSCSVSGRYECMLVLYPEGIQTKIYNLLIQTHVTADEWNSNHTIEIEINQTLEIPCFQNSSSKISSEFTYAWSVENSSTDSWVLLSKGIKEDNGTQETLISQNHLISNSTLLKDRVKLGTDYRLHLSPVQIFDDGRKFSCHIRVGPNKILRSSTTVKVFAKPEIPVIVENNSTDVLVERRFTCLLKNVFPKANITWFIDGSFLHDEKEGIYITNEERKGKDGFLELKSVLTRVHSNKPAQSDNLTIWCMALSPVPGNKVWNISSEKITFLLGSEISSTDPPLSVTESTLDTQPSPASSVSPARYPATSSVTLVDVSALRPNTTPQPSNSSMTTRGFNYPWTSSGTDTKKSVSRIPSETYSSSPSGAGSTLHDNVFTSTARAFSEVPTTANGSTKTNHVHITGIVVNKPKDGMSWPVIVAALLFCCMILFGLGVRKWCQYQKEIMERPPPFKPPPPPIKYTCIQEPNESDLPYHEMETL

[6] = molecular target: PD-1 stably expressed on Jurkat/IL-2 reporter cells (Jurkat/PD-1) (human) (UniProt Q15116); assay: cell-based or functional assay
[7] = molecular target: human TIGIT expressed on cells (Jurkat/TIGIT cells) (human) (UniProt Q495A1); assay: flow cytometry, Jurkat/TIGIT cells
CD112R [8] = molecular target: CD112R (UniProt Q6DKI7); assay: flow cytometry, CD112R-expressing cells, secondary reagent alone
[9] = molecular target: CD226 (Homo sapiens (Human)) (UniProt Q15762); assay: flow cytometry, CD226-expressing cells, secondary reagent alone
CD96 [10] = molecular target: T1, CD96; assay: flow cytometry, CD96-expressing cells, secondary reagent alone
[11] = molecular target: TIGIT (Homo sapiens (Human)) (UniProt Q495A1); assay: flow cytometry, TIGIT-expressing cells, secondary reagent alone
Chain of TIGIT (Homo sapiens (Human)) (Q495A1 22-244): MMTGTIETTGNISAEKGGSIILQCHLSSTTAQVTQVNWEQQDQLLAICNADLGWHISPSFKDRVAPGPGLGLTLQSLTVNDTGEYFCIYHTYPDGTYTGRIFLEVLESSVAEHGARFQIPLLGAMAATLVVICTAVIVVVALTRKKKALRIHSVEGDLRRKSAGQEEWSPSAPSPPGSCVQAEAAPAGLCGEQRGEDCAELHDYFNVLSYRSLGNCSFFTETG

Chain of CD112R (Q6DKI7 whole entry): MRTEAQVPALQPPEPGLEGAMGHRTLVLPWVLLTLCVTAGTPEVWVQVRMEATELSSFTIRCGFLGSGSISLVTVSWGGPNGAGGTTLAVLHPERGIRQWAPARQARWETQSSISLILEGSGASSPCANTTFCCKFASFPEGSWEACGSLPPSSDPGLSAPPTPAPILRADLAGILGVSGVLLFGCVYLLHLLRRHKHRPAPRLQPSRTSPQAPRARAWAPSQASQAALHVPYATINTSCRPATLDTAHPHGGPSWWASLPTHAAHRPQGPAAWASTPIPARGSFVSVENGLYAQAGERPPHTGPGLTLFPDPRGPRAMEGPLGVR
Chain of human PD-1 expressed on cells (Jurkat/PD-1 cells) (human) (Q15116 21-288): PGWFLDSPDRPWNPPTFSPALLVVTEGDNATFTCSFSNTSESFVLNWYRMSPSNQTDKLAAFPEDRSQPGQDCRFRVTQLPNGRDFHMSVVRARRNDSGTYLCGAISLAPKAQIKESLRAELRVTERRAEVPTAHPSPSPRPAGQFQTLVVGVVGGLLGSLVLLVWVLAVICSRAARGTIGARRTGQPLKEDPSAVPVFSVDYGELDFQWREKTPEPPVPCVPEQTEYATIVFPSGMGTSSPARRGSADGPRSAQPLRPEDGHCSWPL
Chain of human PD-1 and human TIGIT co-expressed on Jurkat cells (Jurkat/PD-1/TIGIT cells) (human) (chain, as listed by the source, chain 1 of 2): as the sequence (Q15116 21-288) above
Chain of human PD-1 and human TIGIT co-expressed on Jurkat cells (Jurkat/PD-1/TIGIT cells) (human) (chain, as listed by the source, chain 2 of 2): as the sequence (Q495A1 22-244) above
Chain of PD-1 stably expressed on Jurkat/IL-2 reporter cells (Jurkat/PD-1) (human) (Q15116 25-288): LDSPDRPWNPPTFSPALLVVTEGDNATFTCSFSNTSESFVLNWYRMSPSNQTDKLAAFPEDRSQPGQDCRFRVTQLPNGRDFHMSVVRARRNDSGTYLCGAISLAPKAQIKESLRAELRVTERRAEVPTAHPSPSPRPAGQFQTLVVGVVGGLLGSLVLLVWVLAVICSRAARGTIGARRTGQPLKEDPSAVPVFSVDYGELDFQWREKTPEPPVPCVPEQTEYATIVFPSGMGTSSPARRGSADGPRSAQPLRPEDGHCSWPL
Chain of CD226 (Homo sapiens (Human)) (Q15762 19-336): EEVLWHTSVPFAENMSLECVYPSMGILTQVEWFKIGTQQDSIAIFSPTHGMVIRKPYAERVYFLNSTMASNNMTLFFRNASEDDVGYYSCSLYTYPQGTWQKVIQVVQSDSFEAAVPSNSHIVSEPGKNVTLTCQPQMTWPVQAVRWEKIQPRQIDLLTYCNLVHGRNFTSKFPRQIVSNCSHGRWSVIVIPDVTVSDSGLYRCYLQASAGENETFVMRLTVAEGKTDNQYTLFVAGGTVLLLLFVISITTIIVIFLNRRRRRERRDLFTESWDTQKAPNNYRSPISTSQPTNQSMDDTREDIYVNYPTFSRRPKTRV
Chain of human TIGIT expressed on cells (Jurkat/TIGIT cells) (human) (Q495A1 22-244): as the sequence (Q495A1 22-244) above
Chain of rB7H6.Fc (recombinant B7-H6 Fc fusion protein, R&D Systems) (human) (Q68D85 25-262 limits assumed): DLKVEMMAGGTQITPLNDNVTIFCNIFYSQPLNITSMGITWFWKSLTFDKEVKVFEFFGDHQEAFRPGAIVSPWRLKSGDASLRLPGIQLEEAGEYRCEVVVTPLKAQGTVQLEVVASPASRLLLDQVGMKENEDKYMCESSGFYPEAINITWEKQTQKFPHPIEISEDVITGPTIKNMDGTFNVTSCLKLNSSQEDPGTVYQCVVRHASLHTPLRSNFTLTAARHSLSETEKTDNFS

Substance: parental NKp30 strain (wild-type NKp30 IgC-like domain displayed on yeast) (from UniProt O14931 19-134) (receptor)
- MFI [1]: 90

Substance: Fc Control (heterodimer) (from UniProt P0DOX5 218-449; P0DOX5 218-449)
- MFI at 6.25 nM [2]: 48 MFI

Substance: variant CD112 IgV-Fc Y33H, A112V, S118Y (Fc fusion)
- MFI at 100 nM (CD112R [3]): 2350

Substance: variant CD112 IgV-Fc R12W, Y33H, Q79R, V101M, A112V (Fc fusion)
- MFI at 100 nM (CD112R [3]): 2050

Substance: PD-L1 variant IgV-Fc I20L/K28E/D43G/N45D/V58A/Q89R (Fc fusion)
- Fold increase over wildtype PD-L1 IgV-Fc [4]: 15.4 fold
- MFI at 50 nM [4]: 80500 MFI

Substance: Wild Type PD-L2 full ECD Fc (from UniProt Q9BQ51 20-220) (Fc fusion)
- MFI at 6.25 nM [2]: 314 MFI

Substance: Fc Control (homodimer) (from UniProt P0DOX5 218-449)
- MFI at 6.25 nM [2]: 66 MFI

Substance: CD112 variant IgV-Fc fusion V19A, N47K, N106Y, K116E, S118Y
- MFI at 100 nM (CD96 [5]): 2850

Substance: variant PD-L2 IgV-Fc H15Q/T47A/K65R/S67L/Q82R/V89D (Fc fusion)
- MFI at 6.25 nM [2]: 20300 MFI

Substance: Wild Type CD155 full ECD Fc (from UniProt P15151 21-343) (Fc fusion)
- MFI at 6.25 nM [2]: 249 MFI

Substance: variant PD-L2 IgV-Fc I13V,H15Q,T47A,E58G,S67L,Q82R,V89D (Fc fusion)
- Fold increase over wildtype PD-L2 IgV-Fc (IFN gamma, MLR) [6]: 0.61 fold
- IFN gamma levels pg/mL (MLR) [6]: 836 pg/mL

Substance: Human IgG (irrelevant Ig control) (antibody)
- MFI at 6.25 nM [7]: 48 MFI
- MFI at 6.25 nM [2]: 41 MFI
- Fold increase over wildtype PD-L1 IgV-Fc [4]: 0 fold
- MFI at 6.25 nM [4]: 41 MFI
- MFI at 50 nM [4]: 198 MFI

Substance: Anti-hFc PE (antibody)
- MFI at 20 nM (CD112R [8]): 1010
- MFI at 20 nM [9]: 1010
- MFI at 20 nM (CD96 [10]): 1060
- MFI at 20 nM [11]: 1140
